Assay: soluble on expression in E. coli; label from the status in PepcDB or PDB records

Sequence | soluble on expression in E. coli
RPLFAREGGIYAVLVCMQEYKTSVLVQQAGLAALKMLAVASSSEIPTFVTGRDSIHSLFDAQMTREIFASIDSATRPGSESLLLTVPAAVILMLNTEGCSSAARNGLLLLNLLLCNHHTLGDQIITQELRDTLFRHSGIAPRTEPMPTTRTILMMLLNRYSEPPGSPERAALETPIIQGQDGSPELLIRSLVGGPSAELLLDLERVLCREGSPGGAVRPLLKRLQQETQPFLLLLRTLDAPGPNKTLLLSVLRVITRLLDFPEAMVLPWHEVLEPCLNCLSGPSSDSEIVQELTCFLHRLASMHKDYAVVLCCLGAKEILSKVLDKHSAQLLLGCELRDLVTECEKYAQLYSNLTSSILAGCIQMVLGQIEDHRRTHQPINIPFFDVFLRHLCQGSSVEVKEDKCWEKVEVSSNPHRASKLTDHNPKTYWESNGSTGSHYITLHMHRGVLVRQLTLLVASEDSSYMPARVVVFGGDSTSCIGTELNTVNVMPSASRVILLENLNRFWPIIQIRIKRCQQGGIDTRVRGVEVLGPKPTFWPLFREQLCRRTCLFYTIRAQAWSRDIAEDHRRLLQLCPRLNRVLRHEQNFADRFLPDDEAAQALGKTCWEALVSPLVQNITSPDAEGVSALGWLLDQYLEQRETSRNPLSRAASFASRVRRLCHLLVHVEPPPGPSPEPSTRPFSKNSKGRDRSPAPSPVLPSSSLRNITQCWLSVVQEQVSRFLAAAWRAPDFVPRYCKLYEHLQRAGSELFGPRAAFMLALRSGFSGALLQQSFLTAAHMSEQFARYIDQQIQGGLIGGAPGVEMLGQLQRHLEPIMVLSGLELATTFEHFYQHYMADRLLSFGSSWLEGAVLEQIGLCFPNRLPQLMLQSLSTSEELQRQFHLFQLQRLDKLFLEQEDEEEKRLEEEEEEEEEEEAEKELFIEDPSPAISILVLSPRCWPVSPLCYLYHPRKCLPTEFCDALDRFSSFYSQSQNHPVLDMGPHRRLQWTWLGRAELQFGKQILHVSTVQMWLLLKFNQTEEVSVETLLKDSDLSPELLLQALVPLTSGNGPLTLHEGQDFPHGGVLRLHEPGPQRSGEALWLIPPQAYLNVEKDEGRTLEQKRNLLSCLLVRILKAHGEKGLHIDQLVCLVLEAWQKGPNPPGTLGHTVAGGVACTSTDVLSCILHLLGQGYVKRRDDRPQILMYAAPEPMGPCRGQADVPFCGSQSETSKPSPEAVATLASLSCLQAAP | soluble
RPVWYGEPVDIQPEHRDMMLVVDLSGSMAEEDMKTSNGDFVDRLTAVKQVVSDFIDQRKGDRLGLVLFGDHAYLQTPLTFDRNTVREQLDRTVLNLVGQRTAIGEGLGLATKTFIESNAPQRTIILLSDGANTAGVLEPLEAAQLAKDNHAKIYTVGIGAGEMQVRGFFGKQTVNTARDLDEDTLTKIATMTGGQYFRARNADELAEIYQTI | not soluble
RQEQRRTDHELREQLHFRQALIDAIPAPIYFMDTTGIFLGCNKAFEAFSGHTQDEIVGKTIYDLMPPSLAKHTDSADRELFEHGGIQIYESVISFADGALHDVIFYKATFTTTEKNIGGLVGTILDIT | not soluble
RQRTASLIDTNHWLSRIIDLVPHPIFLKDHNGKYLLANIAQGELFGKKPEELLGKTDIDFVYNSDEYVVIKQSDDKVVSTRKTVVLPEQIVTLGDIKYYLYTSKVPLISPVDGELRILGVSINLT | not soluble
RREMTSYSDIDLILLHPEGSIPSGLEHFWYPIWDAKIRLDYTVRTPKECADMISAEPTAALALLDISHCSGDPQLTATTRCVVLEQWRRELKKNFNDVTDTAIARWNRSGSVVDMTHPDLKHGRGGLRDIELIRALALGNLCDKRPLGEERQLLLNIRTMLHQHAGRARDVLDPEFAVDVALDLGCEDRYDLSRSLAKAARTIDDATNAALSTARNLLPRRSSVRKAVRRPVDIDVVEVDGTLALSRTPNLEDPSLVLRVAAASARTGMTISESAWKQLETVPSMPPT | not soluble
RRYWVVLDGNFEDYLKKFSAKSRNTLLRKIKRFAELSGGEIDWREYCKPEEMHEFYKLAMEVSQKTYQERLLDCGLPSDQQFQENMLALAAEDNVRGYLLFYQKKPIAYIYCPVHDGIALYEYVGHDPEYQRWSPGTLLQYFALQRMFTASHIKIFDFTEGEGAHKAFFATNNQYCADVYYFRR | not soluble
RSGKCVGDVIETVDSEEAMGDLKIVLAAIFARKFAGVNGEVTKEYLEGYKMLNIYITNACNLKCKHCFMLSGKKLENELTLEDWMKVLTSFKENGGEFVTFSGGEPLMFKNFPQIISHAHDLGLKSTVLSNGLLWSGKLIHDLALFIDEIQFSLDGVDEETNSMVRGSGHFEKVVDTIVKFANAGVKT | not soluble
RSPICHLFSAINSSPFKIAPEKEQDLKTIVDDKKIIISVVSEPGFNIRVRKNESNNSHEIVLTVASLEYIWAFSNFFWVFTQEYSKSQKNNDEHFDLTGKNRLKKSDELLKWARKNLQTTGCESWPKKCPKPEAYLQGSEDSQVASEIFLCAIAWILHHEISHVVLQHPLVTTAFSTQEEREADSHATKWILGNLYESAPELKKRALGIATAVLCIQSLEVENYFCLQNTHPAAYERIYSNISCYPVGNEELIEALCTVMLQYLFHGKNINVNLDGESFSSILGDLLCDISRLTSN | not soluble
RTEAGDAYYSKFANNTPLPALMVSRKKFGSSYVYDKSYKTWDVPIAEQMEQKAKINIFAVAEYTDTQKIKVTVKGKILEGNTLPKSMVQVYLLEDKLIAPQVDGNTTVENYEHNHVLRGAVNGIWGEEFVNLKDYLYTYAVEPLSGMSFVAENYSIVAFVYDVQTFEVYDVVHVKINPQSDGK | soluble
RTEDLPKAVVFLEPQWYSVLEKDSVTLKCQGAYSPEDNSTQWFHNESLISSQASSYFIDAATVNDSGEYRCQTNLSTLSDPVQLEVHIGWLLLQAPRWVFKEEDPIHLRCHSWKNTALHKVTYLQNGKDRKYFHHNSDFHIPKATLKDSGSYFCRGLVGSKNVSSETVNITITQGL | soluble
RVESLMTHRSDIIALDLDDPVDENLKKMIASGRSNFPVYERDLDDVIGIVSVKDVLAKLVESGKVDIRASVTKPLFAPEAITILKLLESFKETGMHIALITDEYGSVQGIITLHDILEAIVGDVRSLGEPEEEQI | not soluble
RWETHVYRAVKDLLVGLGFTEVLQLVLTSPRLVEAAGFSSMAVEVLNPVQQEYSVLRPTLLITLLQTLRENQHRRKPVKVFEAGNAVYLEDGEPRDEEKLALGVLDEEAGFEDVQAPLYAVLRIMGVDFEVEEASHPMFMEGRTAAVKVGGERLGYIGEVKPEVLEAFGLEYPVAAAEISLEVLARWTSRT | not soluble
SAAAIAASALPGAFGRLVSVCSRSILASQGSGSASLWSASRRFNSQSASYPQGYVPKTSLSSPPWQEVVLPDPVEETRHHAEVVKRVNELIATGQYGRLFAVVHFASHQWKVTAEDLILIENELDIKCGERIRLEKVLLVGADNFTLLGKPLLRKELVRVEATVIEKTESWPKINMKFRKRKNFRKKKIIVNPQTILRINTIEIAPRLL | soluble
SAATVPATTRSDQTWDFSCNLDVSFESEEHALIAYTSLAVDKELQPDKVRRVMSVSNNKLSVHFEAIEARLLRASFSAFVDVLTLATRTIQEFGQK | soluble
SAAVGAEARGAWCVPCLVSLDTLQELCRKEKLTCKSIGITKRNLNNYEVEYLCDYKVVKDMEYYLVKWKGWPDSTNTWEPLQNLKCPLLLQQFSNDKHNYLSQVITSEEAERRGQFYDNKGITYLFDLDYESDEFTVDAARYGNVSHFVNHSCDPNLQVFNVFIDNLDTRLPRIALFSTRTINAGEELTFDYQMKGSGDISSDSIDHSPAKKRVRTVCKCGAVTCRGYLN | soluble
SADEEDSLSQFDISKEETDKLVSEVIRFILFKFHQNSGTPIKREDLTQIVTKNYRQRNLATHVINEAKKKLSNVFGYDLKELQRARSSSTGQSRLPQSQSSVDSKSYVLVSELPLEVFKKHVVDETTSPVTGFTFVVLAIVQLAGGKIPEGMLLLGLLRRSFLWFRCNVLCKVVEWKSKVHYRDLFKNLKL | soluble
SAEASSANLGSGCEEKRHEGSSSESVPPGTTISRVKLLDTMVDTFLQKLVAAGSYQRFTDCYKCFYQLQPAMTQRIYDKFIAQLQTSIREEISDIKEEGNLEAVLNALDKIVEEGKVRKEPAWCEAQRCRVQQRCSLCVQAGGQRGSEETQALPVSMAGSPSPLPGSPGAQEGGV | soluble

Source: the DeepSol protein solubility set
